Stoichiometry N data for one molecule are collected here from article doi:10.1101/2020.03.02.973859.

This assay addresses T1, K+/Cl- co-transporter KCC2 (mouse (endogenous in mouse forebrain)), Q91V14.
T1 chain: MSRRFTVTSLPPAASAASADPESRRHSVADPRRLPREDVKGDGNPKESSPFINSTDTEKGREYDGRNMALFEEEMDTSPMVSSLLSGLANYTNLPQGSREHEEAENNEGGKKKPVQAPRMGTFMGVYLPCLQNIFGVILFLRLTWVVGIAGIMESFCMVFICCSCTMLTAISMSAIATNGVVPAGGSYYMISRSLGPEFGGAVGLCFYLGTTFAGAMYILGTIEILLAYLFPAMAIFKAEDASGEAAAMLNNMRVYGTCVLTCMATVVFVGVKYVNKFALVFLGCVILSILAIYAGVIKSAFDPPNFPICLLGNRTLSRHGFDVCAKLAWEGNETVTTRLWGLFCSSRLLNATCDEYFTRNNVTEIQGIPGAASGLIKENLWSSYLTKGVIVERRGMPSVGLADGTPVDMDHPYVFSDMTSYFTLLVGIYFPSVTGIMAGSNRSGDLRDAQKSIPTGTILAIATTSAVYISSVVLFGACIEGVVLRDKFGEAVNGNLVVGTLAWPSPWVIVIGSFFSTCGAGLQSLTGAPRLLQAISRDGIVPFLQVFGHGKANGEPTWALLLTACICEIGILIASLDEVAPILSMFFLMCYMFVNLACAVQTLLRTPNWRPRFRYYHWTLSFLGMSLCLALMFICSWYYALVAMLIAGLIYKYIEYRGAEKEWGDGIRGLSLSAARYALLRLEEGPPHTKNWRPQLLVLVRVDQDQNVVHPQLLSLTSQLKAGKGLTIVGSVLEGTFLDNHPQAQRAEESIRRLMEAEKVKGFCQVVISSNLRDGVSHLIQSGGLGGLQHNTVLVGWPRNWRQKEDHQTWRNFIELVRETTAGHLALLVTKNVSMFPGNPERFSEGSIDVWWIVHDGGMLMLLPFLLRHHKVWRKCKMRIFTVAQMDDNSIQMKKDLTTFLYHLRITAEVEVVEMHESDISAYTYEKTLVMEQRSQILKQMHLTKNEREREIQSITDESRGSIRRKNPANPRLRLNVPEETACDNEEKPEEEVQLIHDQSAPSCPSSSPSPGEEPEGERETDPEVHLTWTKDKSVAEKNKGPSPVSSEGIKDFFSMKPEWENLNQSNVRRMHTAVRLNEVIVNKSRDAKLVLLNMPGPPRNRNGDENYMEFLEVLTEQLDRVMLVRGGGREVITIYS
The assay is described as follows: native gel or EMSA. Particulars: remark: other sources report otherwise.

In general, stoichiometry N refers to a count of units in the complex or per binding partner.

B1: K+/Cl- co-transporter KCC2, Q91V14 1-1138 (natural protein)
chain: MSRRFTVTSLPPAASAASADPESRRHSVADPRRLPREDVKGDGNPKESSPFINSTDTEKGREYDGRNMALFEEEMDTSPMVSSLLSGLANYTNLPQGSREHEEAENNEGGKKKPVQAPRMGTFMGVYLPCLQNIFGVILFLRLTWVVGIAGIMESFCMVFICCSCTMLTAISMSAIATNGVVPAGGSYYMISRSLGPEFGGAVGLCFYLGTTFAGAMYILGTIEILLAYLFPAMAIFKAEDASGEAAAMLNNMRVYGTCVLTCMATVVFVGVKYVNKFALVFLGCVILSILAIYAGVIKSAFDPPNFPICLLGNRTLSRHGFDVCAKLAWEGNETVTTRLWGLFCSSRLLNATCDEYFTRNNVTEIQGIPGAASGLIKENLWSSYLTKGVIVERRGMPSVGLADGTPVDMDHPYVFSDMTSYFTLLVGIYFPSVTGIMAGSNRSGDLRDAQKSIPTGTILAIATTSAVYISSVVLFGACIEGVVLRDKFGEAVNGNLVVGTLAWPSPWVIVIGSFFSTCGAGLQSLTGAPRLLQAISRDGIVPFLQVFGHGKANGEPTWALLLTACICEIGILIASLDEVAPILSMFFLMCYMFVNLACAVQTLLRTPNWRPRFRYYHWTLSFLGMSLCLALMFICSWYYALVAMLIAGLIYKYIEYRGAEKEWGDGIRGLSLSAARYALLRLEEGPPHTKNWRPQLLVLVRVDQDQNVVHPQLLSLTSQLKAGKGLTIVGSVLEGTFLDNHPQAQRAEESIRRLMEAEKVKGFCQVVISSNLRDGVSHLIQSGGLGGLQHNTVLVGWPRNWRQKEDHQTWRNFIELVRETTAGHLALLVTKNVSMFPGNPERFSEGSIDVWWIVHDGGMLMLLPFLLRHHKVWRKCKMRIFTVAQMDDNSIQMKKDLTTFLYHLRITAEVEVVEMHESDISAYTYEKTLVMEQRSQILKQMHLTKNEREREIQSITDESRGSIRRKNPANPRLRLNVPEETACDNEEKPEEEVQLIHDQSAPSCPSSSPSPGEEPEGERETDPEVHLTWTKDKSVAEKNKGPSPVSSEGIKDFFSMKPEWENLNQSNVRRMHTAVRLNEVIVNKSRDAKLVLLNMPGPPRNRNGDENYMEFLEVLTEQLDRVMLVRGGGREVITIYS
In turn, B1 showed a stoichiometry N of 2.
